Molecular target: T1, interferon regulatory factor 3 (IRF3) (human (endogenous in AC16)), Q14653
T1 chain: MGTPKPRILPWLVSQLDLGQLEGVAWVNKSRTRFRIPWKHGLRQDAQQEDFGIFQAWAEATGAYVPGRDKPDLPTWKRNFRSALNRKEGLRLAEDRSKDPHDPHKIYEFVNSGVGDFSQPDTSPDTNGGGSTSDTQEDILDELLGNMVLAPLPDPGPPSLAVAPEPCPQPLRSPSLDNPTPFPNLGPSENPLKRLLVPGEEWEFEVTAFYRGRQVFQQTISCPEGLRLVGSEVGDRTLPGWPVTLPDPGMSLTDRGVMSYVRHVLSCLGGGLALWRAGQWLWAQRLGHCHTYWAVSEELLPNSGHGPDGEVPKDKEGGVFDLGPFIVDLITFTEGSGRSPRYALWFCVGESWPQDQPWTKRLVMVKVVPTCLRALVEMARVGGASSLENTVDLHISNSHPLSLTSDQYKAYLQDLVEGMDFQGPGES
Test: native gel or EMSA
Settings: remark: other sources report otherwise

B1: interferon regulatory factor 3 (IRF3), Q14653 1-427 (natural protein)
chain: MGTPKPRILPWLVSQLDLGQLEGVAWVNKSRTRFRIPWKHGLRQDAQQEDFGIFQAWAEATGAYVPGRDKPDLPTWKRNFRSALNRKEGLRLAEDRSKDPHDPHKIYEFVNSGVGDFSQPDTSPDTNGGGSTSDTQEDILDELLGNMVLAPLPDPGPPSLAVAPEPCPQPLRSPSLDNPTPFPNLGPSENPLKRLLVPGEEWEFEVTAFYRGRQVFQQTISCPEGLRLVGSEVGDRTLPGWPVTLPDPGMSLTDRGVMSYVRHVLSCLGGGLALWRAGQWLWAQRLGHCHTYWAVSEELLPNSGHGPDGEVPKDKEGGVFDLGPFIVDLITFTEGSGRSPRYALWFCVGESWPQDQPWTKRLVMVKVVPTCLRALVEMARVGGASSLENTVDLHISNSHPLSLTSDQYKAYLQDLVEGMDFQGPGES
  stoichiometry N: 2
